{"source": "patent US20200216515A1", "about": "(CELLECTIS, published 2020)", "binders": {"B1": {"name": "G12 (antibody, V domains shown)", "VH": "QVQLQQPGAELVKPGASMKMSCKASGYTFPSSNIHWLKQTPGQGLEWIGVIYPGNGDTSYNQKFKDKATLTTDKSSSTAYMQLSSLTSEDSAIYFCARVYNWHFDVWGAGTTVTVSS", "VL": "NIVLTQSPASLAVSLGQRATISCRASESVDGYGDIFMLWYQQKPGQPPKLLIYFASNLESGVPARFSGSGSRTDFTLTIDPVEADDAATYYCQQNNEDPYTFGGGTKLEIK"}, "B2": {"name": "M29 (antibody, V domains shown)", "VH": "EVQLQQSGPELVKPGASVKMSCKASGYIFTSYVMYWVKQKPGQGLEWIGYINPYNDGTKYNEKFKGKATLTSDKSSSTAYMELSSLTSEDSAVYYCARYYDYDYYFDYWGQGTTLTVSS", "VL": "DIQMTQSPSSLSASLGGKVTITCKASQDINKYIAWYQHKPGKGPRLLIHYTSTLQPGIPSRFSGSGSGRDYSFSISNLEPEDIATYYCLQYDYLWTFGGGTKLEIK"}, "B3": {"name": "M22 (antibody, V domains shown)", "VH": "QVQLQQPGAELVKPGASVKLSCKASGYTFTRYWMHWVKQRPGQGLEWIGNIDPSDTETHYNQQFKDKATLTVDKSSSTAYMQLSSLTSEDSAVYYCAIYYGNPSYYAMDYWGQGTSVTVSS", "VL": "DIVMTQSPSSLTVTAGEKVTMSCKSSQNLLNSGNQKKYLNWYQQKPGQPPKLLIYWASTRESGVPDRFTGSGSGTDFTLTISSVQAEDLAVYFCQNDYSYPFTFGAGTKLELK"}, "B4": {"name": "M26 (antibody, V domains shown)", "VH": "EVQLQQSGPELVKPGASVKMSCKASGYTFTSYFIHWVKQKPGQGLEWIGFINPYNDGSKYNEKFKGKATLTSDKSSSTAYMELSSLTSEDSAVYYCTRDDGYYGYAMDYWGQGTLVTVSS", "VL": "DIQMTQSPSSLSASLGERVSLTCRATQELSGYLSWLQQKPDGTIKRLIYAASTLDSGVPKRFSGNRSGSDYSLTISSLESEDFADYYCLQYAIYPYTFGGGTKLEIK"}}}
{"target": "T1, CLL-1 (UniProt Q5QGZ9 65-265, limits assumed)", "T1 sequence (looked up)": "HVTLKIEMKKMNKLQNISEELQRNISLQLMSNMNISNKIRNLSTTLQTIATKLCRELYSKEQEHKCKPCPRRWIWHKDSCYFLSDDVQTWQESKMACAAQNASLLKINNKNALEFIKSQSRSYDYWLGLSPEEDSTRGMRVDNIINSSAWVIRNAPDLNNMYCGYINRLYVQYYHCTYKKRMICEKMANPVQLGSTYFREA", "assay": "method not stated (Table 2, affinity of antibodies for CLL-1)", "units": {"Kd": "nM"}}
{"binder": "B1", "Kd": 0.07}
{"binder": "B2", "Kd": 1.48}
{"binder": "B3", "Kd": 0.388}
{"binder": "B4", "Kd": 0.214}
